Numbered stars: 1 amine (or outer) side, 2 acyl side, 3 side chain; on linkers, the order of the positions; unused ones are H or OH. Bridge positions count the residues as written; N and C are the ends. Side chains are listed from the residue outwards. Ends that are not written are not given here. * marks the point of attachment. C20 diacid = O=C(O)CCCCCCCCCCCCCCCCCCC(=O)*; γGlu = O=C(O)[C@H](CCC(=O)[*:2])N[*:1]; AEEA = NCCOCCOCC(=O)O
T1: rat calcitonin receptor (rat, UniProt P32214 25-516)
T1 construct: whole, on cells; Used as membranes prepared from the transfected cells; also called rCTR; rCT
T1 sequence (looked up): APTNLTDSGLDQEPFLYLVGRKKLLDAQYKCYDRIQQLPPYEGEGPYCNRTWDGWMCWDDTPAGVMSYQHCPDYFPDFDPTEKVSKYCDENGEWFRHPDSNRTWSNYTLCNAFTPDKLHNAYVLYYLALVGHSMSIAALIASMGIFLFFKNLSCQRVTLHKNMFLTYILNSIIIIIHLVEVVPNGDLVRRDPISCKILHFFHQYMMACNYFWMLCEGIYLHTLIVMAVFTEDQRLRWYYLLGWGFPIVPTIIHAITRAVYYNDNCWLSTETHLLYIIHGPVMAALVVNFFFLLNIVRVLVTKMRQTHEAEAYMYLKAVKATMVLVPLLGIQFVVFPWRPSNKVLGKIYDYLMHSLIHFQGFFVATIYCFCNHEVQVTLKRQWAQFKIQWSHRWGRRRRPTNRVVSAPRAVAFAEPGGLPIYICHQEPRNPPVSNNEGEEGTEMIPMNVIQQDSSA

T2: human calcitonin receptor (human, UniProt P30988 25-474)
T2 construct: whole, on cells; Used as membranes prepared from the transfected cells; also called hCTR; hCT
T2 sequence (looked up): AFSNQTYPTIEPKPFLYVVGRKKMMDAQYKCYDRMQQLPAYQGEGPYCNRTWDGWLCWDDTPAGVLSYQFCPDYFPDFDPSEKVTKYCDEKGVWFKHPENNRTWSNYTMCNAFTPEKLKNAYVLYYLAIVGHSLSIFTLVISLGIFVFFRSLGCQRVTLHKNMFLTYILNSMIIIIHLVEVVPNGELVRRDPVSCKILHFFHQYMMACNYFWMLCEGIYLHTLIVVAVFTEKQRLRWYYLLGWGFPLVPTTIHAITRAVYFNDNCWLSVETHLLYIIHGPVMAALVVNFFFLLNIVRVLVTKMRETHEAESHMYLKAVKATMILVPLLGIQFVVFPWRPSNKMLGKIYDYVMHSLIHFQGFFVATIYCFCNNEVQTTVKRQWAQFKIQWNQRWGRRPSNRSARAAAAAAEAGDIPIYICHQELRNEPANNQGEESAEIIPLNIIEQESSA

B1: N^ε1-[2-[2-[2-[[(4S)-4-carboxy-4-(19-carboxynonadecanoylamino)butanoyl]amino]ethoxy]ethoxy]acetyl]-[Ser14,Arg17,Pro21,Pro27,Pro31]-h-amylin (peptide)
peptide: K([AEEA-γGlu-C20 diacid])CNTATCATQRLASFLRHSSPNFGAIPSSTPVGSNTY-NH2
modifications: disulfide 2-7; N-terminus assumed
SMILES: CC[C@H](C)[C@H](NC(=O)[C@H](C)NC(=O)CNC(=O)[C@H](Cc1ccccc1)NC(=O)[C@H](CC(N)=O)NC(=O)[C@@H]1CCCN1C(=O)[C@H](CO)NC(=O)[C@H](CO)NC(=O)[C@H](Cc1c[nH]cn1)NC(=O)[C@H](CCCNC(=N)N)NC(=O)[C@H](CC(C)C)NC(=O)[C@H](Cc1ccccc1)NC(=O)[C@H](CO)NC(=O)[C@H](C)NC(=O)[C@H](CC(C)C)NC(=O)[C@H](CCCNC(=N)N)NC(=O)[C@H](CCC(N)=O)NC(=O)[C@@H](NC(=O)[C@H](C)NC(=O)[C@@H]1CSSC[C@H](NC(=O)[C@@H](N)CCCCNC(=O)COCCOCCNC(=O)CC[C@H](NC(=O)CCCCCCCCCCCCCCCCCCC(=O)O)C(=O)O)C(=O)N[C@@H](CC(N)=O)C(=O)N[C@@H]([C@@H](C)O)C(=O)N[C@@H](C)C(=O)N[C@@H]([C@@H](C)O)C(=O)N1)[C@@H](C)O)C(=O)N1CCC[C@H]1C(=O)N[C@@H](CO)C(=O)N[C@@H](CO)C(=O)N[C@H](C(=O)N1CCC[C@H]1C(=O)N[C@H](C(=O)NCC(=O)N[C@@H](CO)C(=O)N[C@@H](CC(N)=O)C(=O)N[C@H](C(=O)N[C@@H](Cc1ccc(O)cc1)C(N)=O)[C@@H](C)O)C(C)C)[C@@H](C)O
notes: Analogue of human amylin; disulfide and C-terminal amide as told for h-amylin; also called compound 73
B2: N^ε1-[2-[2-[2-[[(4S)-4-carboxy-4-(19-carboxynonadecanoylamino)butanoyl]amino]ethoxy]ethoxy]acetyl]-[Thr14,Arg17,Pro21,Pro27,Pro31]-h-amylin (peptide)
peptide: K([AEEA-γGlu-C20 diacid])CNTATCATQRLATFLRHSSPNFGAIPSSTPVGSNTY-NH2
modifications: disulfide 2-7; N-terminus assumed
SMILES: CC[C@H](C)[C@H](NC(=O)[C@H](C)NC(=O)CNC(=O)[C@H](Cc1ccccc1)NC(=O)[C@H](CC(N)=O)NC(=O)[C@@H]1CCCN1C(=O)[C@H](CO)NC(=O)[C@H](CO)NC(=O)[C@H](Cc1c[nH]cn1)NC(=O)[C@H](CCCNC(=N)N)NC(=O)[C@H](CC(C)C)NC(=O)[C@H](Cc1ccccc1)NC(=O)[C@@H](NC(=O)[C@H](C)NC(=O)[C@H](CC(C)C)NC(=O)[C@H](CCCNC(=N)N)NC(=O)[C@H](CCC(N)=O)NC(=O)[C@@H](NC(=O)[C@H](C)NC(=O)[C@@H]1CSSC[C@H](NC(=O)[C@@H](N)CCCCNC(=O)COCCOCCNC(=O)CC[C@H](NC(=O)CCCCCCCCCCCCCCCCCCC(=O)O)C(=O)O)C(=O)N[C@@H](CC(N)=O)C(=O)N[C@@H]([C@@H](C)O)C(=O)N[C@@H](C)C(=O)N[C@@H]([C@@H](C)O)C(=O)N1)[C@@H](C)O)[C@@H](C)O)C(=O)N1CCC[C@H]1C(=O)N[C@@H](CO)C(=O)N[C@@H](CO)C(=O)N[C@H](C(=O)N1CCC[C@H]1C(=O)N[C@H](C(=O)NCC(=O)N[C@@H](CO)C(=O)N[C@@H](CC(N)=O)C(=O)N[C@H](C(=O)N[C@@H](Cc1ccc(O)cc1)C(N)=O)[C@@H](C)O)C(C)C)[C@@H](C)O
notes: Analogue of human amylin; disulfide and C-terminal amide as told for h-amylin; also called compound 75
B3: N^ε1-[(4S)-4-carboxy-4-(19-carboxynonadecanoylamino)butanoyl]-[Arg14,Arg17,Pro21,Pro27,Pro34]-h-amylin (peptide)
peptide: K([γGlu-C20 diacid])CNTATCATQRLARFLRHSSPNFGAIPSSTNVGPNTY-NH2
modifications: disulfide 2-7; N-terminus assumed
SMILES: CC[C@H](C)[C@H](NC(=O)[C@H](C)NC(=O)CNC(=O)[C@H](Cc1ccccc1)NC(=O)[C@H](CC(N)=O)NC(=O)[C@@H]1CCCN1C(=O)[C@H](CO)NC(=O)[C@H](CO)NC(=O)[C@H](Cc1c[nH]cn1)NC(=O)[C@H](CCCNC(=N)N)NC(=O)[C@H](CC(C)C)NC(=O)[C@H](Cc1ccccc1)NC(=O)[C@H](CCCNC(=N)N)NC(=O)[C@H](C)NC(=O)[C@H](CC(C)C)NC(=O)[C@H](CCCNC(=N)N)NC(=O)[C@H](CCC(N)=O)NC(=O)[C@@H](NC(=O)[C@H](C)NC(=O)[C@@H]1CSSC[C@H](NC(=O)[C@@H](N)CCCCNC(=O)CC[C@H](NC(=O)CCCCCCCCCCCCCCCCCCC(=O)O)C(=O)O)C(=O)N[C@@H](CC(N)=O)C(=O)N[C@@H]([C@@H](C)O)C(=O)N[C@@H](C)C(=O)N[C@@H]([C@@H](C)O)C(=O)N1)[C@@H](C)O)C(=O)N1CCC[C@H]1C(=O)N[C@@H](CO)C(=O)N[C@@H](CO)C(=O)N[C@H](C(=O)N[C@@H](CC(N)=O)C(=O)N[C@H](C(=O)NCC(=O)N1CCC[C@H]1C(=O)N[C@@H](CC(N)=O)C(=O)N[C@H](C(=O)N[C@@H](Cc1ccc(O)cc1)C(N)=O)[C@@H](C)O)C(C)C)[C@@H](C)O
notes: Analogue of human amylin; disulfide and C-terminal amide as told for h-amylin; also called compound 65
B4: N^ε1-[(4S)-4-carboxy-4-(19-carboxynonadecanoylamino)butanoyl]-[Arg14,Arg17,Pro21,Pro27,Pro31]-h-amylin (peptide)
peptide: K([γGlu-C20 diacid])CNTATCATQRLARFLRHSSPNFGAIPSSTPVGSNTY-NH2
modifications: disulfide 2-7; N-terminus assumed
SMILES: CC[C@H](C)[C@H](NC(=O)[C@H](C)NC(=O)CNC(=O)[C@H](Cc1ccccc1)NC(=O)[C@H](CC(N)=O)NC(=O)[C@@H]1CCCN1C(=O)[C@H](CO)NC(=O)[C@H](CO)NC(=O)[C@H](Cc1c[nH]cn1)NC(=O)[C@H](CCCNC(=N)N)NC(=O)[C@H](CC(C)C)NC(=O)[C@H](Cc1ccccc1)NC(=O)[C@H](CCCNC(=N)N)NC(=O)[C@H](C)NC(=O)[C@H](CC(C)C)NC(=O)[C@H](CCCNC(=N)N)NC(=O)[C@H](CCC(N)=O)NC(=O)[C@@H](NC(=O)[C@H](C)NC(=O)[C@@H]1CSSC[C@H](NC(=O)[C@@H](N)CCCCNC(=O)CC[C@H](NC(=O)CCCCCCCCCCCCCCCCCCC(=O)O)C(=O)O)C(=O)N[C@@H](CC(N)=O)C(=O)N[C@@H]([C@@H](C)O)C(=O)N[C@@H](C)C(=O)N[C@@H]([C@@H](C)O)C(=O)N1)[C@@H](C)O)C(=O)N1CCC[C@H]1C(=O)N[C@@H](CO)C(=O)N[C@@H](CO)C(=O)N[C@H](C(=O)N1CCC[C@H]1C(=O)N[C@H](C(=O)NCC(=O)N[C@@H](CO)C(=O)N[C@@H](CC(N)=O)C(=O)N[C@H](C(=O)N[C@@H](Cc1ccc(O)cc1)C(N)=O)[C@@H](C)O)C(C)C)[C@@H](C)O
notes: Analogue of human amylin; disulfide and C-terminal amide as told for h-amylin; also called compound 63
B5: N^ε1-[(4S)-4-carboxy-4-(19-carboxynonadecanoylamino)butanoyl]-[Ala14,Arg17,Pro21,Pro27,His34]-h-amylin (peptide)
peptide: K([γGlu-C20 diacid])CNTATCATQRLAAFLRHSSPNFGAIPSSTNVGHNTY-NH2
modifications: disulfide 2-7; N-terminus assumed
SMILES: CC[C@H](C)[C@H](NC(=O)[C@H](C)NC(=O)CNC(=O)[C@H](Cc1ccccc1)NC(=O)[C@H](CC(N)=O)NC(=O)[C@@H]1CCCN1C(=O)[C@H](CO)NC(=O)[C@H](CO)NC(=O)[C@H](Cc1c[nH]cn1)NC(=O)[C@H](CCCNC(=N)N)NC(=O)[C@H](CC(C)C)NC(=O)[C@H](Cc1ccccc1)NC(=O)[C@H](C)NC(=O)[C@H](C)NC(=O)[C@H](CC(C)C)NC(=O)[C@H](CCCNC(=N)N)NC(=O)[C@H](CCC(N)=O)NC(=O)[C@@H](NC(=O)[C@H](C)NC(=O)[C@@H]1CSSC[C@H](NC(=O)[C@@H](N)CCCCNC(=O)CC[C@H](NC(=O)CCCCCCCCCCCCCCCCCCC(=O)O)C(=O)O)C(=O)N[C@@H](CC(N)=O)C(=O)N[C@@H]([C@@H](C)O)C(=O)N[C@@H](C)C(=O)N[C@@H]([C@@H](C)O)C(=O)N1)[C@@H](C)O)C(=O)N1CCC[C@H]1C(=O)N[C@@H](CO)C(=O)N[C@@H](CO)C(=O)N[C@H](C(=O)N[C@@H](CC(N)=O)C(=O)N[C@H](C(=O)NCC(=O)N[C@@H](Cc1c[nH]cn1)C(=O)N[C@@H](CC(N)=O)C(=O)N[C@H](C(=O)N[C@@H](Cc1ccc(O)cc1)C(N)=O)[C@@H](C)O)C(C)C)[C@@H](C)O
notes: Analogue of human amylin; disulfide and C-terminal amide as told for h-amylin; also called compound 93

molecular target: T1, rat calcitonin receptor; assay: SPA competition with 125I-calcitonin, membranes with rat calcitonin receptor (Assay VIII)

Binder	IC50 [µM]
B1	0.0503
B2	0.442
B3	0.108
B4	0.124
B5	0.131

molecular target: T1, rat calcitonin receptor; assay: ratio of binding IC50 at rat calcitonin receptor to IC50 at rat amylin receptor (reference)

Binder	Ratio rCT/rAmylin binding
B1	178
B2	110
B3	93.2
B4	35.6
B5	83.2

molecular target: T2, human calcitonin receptor; assay: ratio of binding IC50 at human calcitonin receptor to IC50 at human amylin receptor (reference)
How it was run: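 Competition binding by SPA uses membrane preparations (35 ng/μL final) in pH 7.4 Hepes buffer with 1 mM CaCl2 and 5 mM MgCl₂. Incubation lasts 120 min at 25° C, and IC₅₀ comes from one-site fitting.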

Binder	Ratio hCT/hAmylin binding
B1	51.7
B2	91.4
B3	82.4
B4	157
B5	101
